B1: BAZ1A, Q9NRL2 (peptide)
chain: TPPAAKKSRI
B2: KCNJ1, P48048 (peptide)
chain: EVNETDDTKM

These binders were tested against T1, CARD11, Q9BXL7 (assay: holdup assay). Conditions: plain residues with an end cap or a label only (N-terminal biotin on a linker: ado-ado).
T1 sequence (Q9BXL7 662-765, limits assumed, looked up): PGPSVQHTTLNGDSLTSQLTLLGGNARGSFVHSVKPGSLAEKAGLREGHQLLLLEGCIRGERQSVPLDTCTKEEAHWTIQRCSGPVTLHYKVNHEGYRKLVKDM
Design: key: below the threshold = too weak to quantify, mostly under pKd 3.1 to 4

Binder | pKd
B1 | below the threshold
B2 | below the threshold

These binders were tested against T2, DFNB31_2, Q9P202 (assay: holdup assay). Conditions: plain residues with an end cap or a label only (N-terminal biotin on a linker: ado-ado).
T2 sequence (Q9P202 274-371, limits assumed, looked up): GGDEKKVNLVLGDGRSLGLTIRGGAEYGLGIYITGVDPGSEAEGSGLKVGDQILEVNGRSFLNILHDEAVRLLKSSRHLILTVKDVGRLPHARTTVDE
Design: key: below the threshold = too weak to quantify, mostly under pKd 3.1 to 4

Binder | pKd
B1 | below the threshold
B2 | below the threshold

Each binder was assayed against T3, DFNB31_3, Q9P202 (assay: holdup assay). Conditions: plain residues with an end cap or a label only (N-terminal biotin on a linker: ado-ado).
T3 sequence (Q9P202 811-907, limits assumed, looked up): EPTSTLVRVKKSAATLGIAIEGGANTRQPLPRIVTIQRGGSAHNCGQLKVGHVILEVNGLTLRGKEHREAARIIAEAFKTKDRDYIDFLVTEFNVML
Design: key: below the threshold = too weak to quantify, mostly under pKd 3.1 to 4

Binder | pKd
B1 | 4.08
B2 | below the threshold

What follows are binders tested against DLG1_1, Q12959 (assay: holdup assay). Conditions: plain residues with an end cap or a label only (N-terminal biotin on a linker: ado-ado).
Design: key: below the threshold = too weak to quantify, mostly under pKd 3.1 to 4

Binder | pKd
B1 | below the threshold
B2 | below the threshold

The binders below were run against DLG1_2, Q12959 (assay: holdup assay). Conditions: plain residues with an end cap or a label only (N-terminal biotin on a linker: ado-ado).
Design: key: below the threshold = too weak to quantify, mostly under pKd 3.1 to 4

Binder | pKd
B1 | below the threshold
B2 | below the threshold

The binders below were run against DLG2_3, Q15700 (assay: holdup assay). Conditions: plain residues with an end cap or a label only (N-terminal biotin on a linker: ado-ado).
Design: key: below the threshold = too weak to quantify, mostly under pKd 3.1 to 4

Binder | pKd
B1 | below the threshold
B2 | below the threshold

What follows are binders tested against FRMPD2_2, Q68DX3 (assay: holdup assay). Conditions: plain residues with an end cap or a label only (N-terminal biotin on a linker: ado-ado).
Sequence of FRMPD2_2, Q68DX3 (Q68DX3 944-1038): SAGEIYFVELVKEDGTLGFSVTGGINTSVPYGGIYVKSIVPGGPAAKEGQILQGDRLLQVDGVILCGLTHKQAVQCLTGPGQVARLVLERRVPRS
Design: key: below the threshold = too weak to quantify, mostly under pKd 3.1 to 4

Binder | pKd
B1 | below the threshold
B2 | below the threshold

Each binder was assayed against FRMPD2_3, Q68DX3 (assay: holdup assay). Conditions: plain residues with an end cap or a label only (N-terminal biotin on a linker: ado-ado).
Sequence of FRMPD2_3, Q68DX3 (Q68DX3 1073-1166): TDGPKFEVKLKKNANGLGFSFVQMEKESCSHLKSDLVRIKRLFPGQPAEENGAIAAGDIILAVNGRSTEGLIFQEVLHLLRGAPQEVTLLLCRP
Design: key: below the threshold = too weak to quantify, mostly under pKd 3.1 to 4

Binder | pKd
B1 | below the threshold
B2 | below the threshold

The binders below were run against GIPC2, Q8TF65 (assay: holdup assay). Conditions: plain residues with an end cap or a label only (N-terminal biotin on a linker: ado-ado).
Sequence of GIPC2, Q8TF65 (Q8TF65 112-203): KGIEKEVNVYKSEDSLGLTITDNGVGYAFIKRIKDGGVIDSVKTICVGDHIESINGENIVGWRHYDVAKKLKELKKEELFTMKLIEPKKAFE
Design: key: below the threshold = too weak to quantify, mostly under pKd 3.1 to 4

Binder | pKd
B1 | below the threshold
B2 | below the threshold

The binders below were run against GRASP, Q7Z6J2 (assay: holdup assay). Conditions: plain residues with an end cap or a label only (N-terminal biotin on a linker: ado-ado).
Sequence of GRASP, Q7Z6J2 (Q7Z6J2 96-193): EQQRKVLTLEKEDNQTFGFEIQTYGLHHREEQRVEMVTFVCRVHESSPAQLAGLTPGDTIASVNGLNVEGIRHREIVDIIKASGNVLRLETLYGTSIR
Design: key: below the threshold = too weak to quantify, mostly under pKd 3.1 to 4

Binder | pKd
B1 | below the threshold
B2 | 3.77

What follows are binders tested against GRID2IP_2, A4D2P6 (assay: holdup assay). Conditions: plain residues with an end cap or a label only (N-terminal biotin on a linker: ado-ado).
Sequence of GRID2IP_2, A4D2P6 (A4D2P6 272-370): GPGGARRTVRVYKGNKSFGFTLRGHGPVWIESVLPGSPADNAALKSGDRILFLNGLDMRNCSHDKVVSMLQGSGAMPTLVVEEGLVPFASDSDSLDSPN
Design: key: below the threshold = too weak to quantify, mostly under pKd 3.1 to 4

Binder | pKd
B1 | 4.42
B2 | below the threshold

What follows are binders tested against GRIP2_5, Q9C0E4 (assay: holdup assay). Conditions: plain residues with an end cap or a label only (N-terminal biotin on a linker: ado-ado).
Sequence of GRIP2_5, Q9C0E4 (Q9C0E4 544-642): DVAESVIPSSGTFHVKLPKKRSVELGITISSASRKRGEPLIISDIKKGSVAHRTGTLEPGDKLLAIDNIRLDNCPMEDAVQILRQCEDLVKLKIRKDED
Design: key: below the threshold = too weak to quantify, mostly under pKd 3.1 to 4

Binder | pKd
B1 | below the threshold
B2 | below the threshold

Each binder was assayed against GRIP2_6, Q9C0E4 (assay: holdup assay). Conditions: plain residues with an end cap or a label only (N-terminal biotin on a linker: ado-ado).
Sequence of GRIP2_6, Q9C0E4 (Q9C0E4 648-740): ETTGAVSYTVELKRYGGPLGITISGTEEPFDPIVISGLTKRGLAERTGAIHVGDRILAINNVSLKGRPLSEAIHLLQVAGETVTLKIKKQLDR
Design: key: below the threshold = too weak to quantify, mostly under pKd 3.1 to 4

Binder | pKd
B1 | below the threshold
B2 | 3.52

What follows are binders tested against IL16_3, Q14005 (assay: holdup assay). Conditions: plain residues with an end cap or a label only (N-terminal biotin on a linker: ado-ado).
Sequence of IL16_3, Q14005 (Q14005 1107-1207): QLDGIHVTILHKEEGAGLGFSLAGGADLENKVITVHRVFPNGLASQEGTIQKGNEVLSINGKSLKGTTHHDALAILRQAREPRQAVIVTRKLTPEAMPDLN
Design: key: below the threshold = too weak to quantify, mostly under pKd 3.1 to 4

Binder | pKd
B1 | below the threshold
B2 | below the threshold

What follows are binders tested against T4, LIN7A, O14910 (assay: holdup assay). Conditions: plain residues with an end cap or a label only (N-terminal biotin on a linker: ado-ado).
T4 sequence (O14910 103-200, limits assumed, looked up): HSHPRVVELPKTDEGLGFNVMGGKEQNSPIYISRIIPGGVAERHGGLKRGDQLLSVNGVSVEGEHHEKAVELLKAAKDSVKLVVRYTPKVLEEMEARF
Design: key: below the threshold = too weak to quantify, mostly under pKd 3.1 to 4

Binder | pKd
B1 | below the threshold
B2 | 3.52

The binders below were run against MAGI2_2, Q86UL8 (assay: holdup assay). Conditions: plain residues with an end cap or a label only (N-terminal biotin on a linker: ado-ado).
Sequence of MAGI2_2, Q86UL8 (Q86UL8 410-522): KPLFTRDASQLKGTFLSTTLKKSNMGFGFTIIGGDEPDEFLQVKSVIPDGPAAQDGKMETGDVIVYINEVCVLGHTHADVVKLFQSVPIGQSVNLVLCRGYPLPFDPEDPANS
Design: key: below the threshold = too weak to quantify, mostly under pKd 3.1 to 4

Binder | pKd
B1 | below the threshold
B2 | below the threshold

The binders below were run against MAST1, Q9Y2H9 (assay: holdup assay). Conditions: plain residues with an end cap or a label only (N-terminal biotin on a linker: ado-ado).
Sequence of MAST1, Q9Y2H9 (Q9Y2H9 962-1065): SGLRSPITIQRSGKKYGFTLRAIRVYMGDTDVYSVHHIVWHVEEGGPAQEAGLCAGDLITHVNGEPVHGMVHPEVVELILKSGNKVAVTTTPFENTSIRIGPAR
Design: key: below the threshold = too weak to quantify, mostly under pKd 3.1 to 4

Binder | pKd
B1 | 3.9
B2 | 4.46

Each binder was assayed against T5, MPDZ_5, O75970 (assay: holdup assay). Conditions: plain residues with an end cap or a label only (N-terminal biotin on a linker: ado-ado).
T5 sequence (O75970 695-796, limits assumed, looked up): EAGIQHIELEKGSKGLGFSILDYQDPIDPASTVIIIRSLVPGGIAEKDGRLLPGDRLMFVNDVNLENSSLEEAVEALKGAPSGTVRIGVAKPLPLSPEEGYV
Design: key: below the threshold = too weak to quantify, mostly under pKd 3.1 to 4

Binder | pKd
B1 | below the threshold
B2 | below the threshold

Each binder was assayed against T6, MPP6, Q9NZW5 (assay: holdup assay). Conditions: plain residues with an end cap or a label only (N-terminal biotin on a linker: ado-ado).
T6 sequence (Q9NZW5 125-219, limits assumed, looked up): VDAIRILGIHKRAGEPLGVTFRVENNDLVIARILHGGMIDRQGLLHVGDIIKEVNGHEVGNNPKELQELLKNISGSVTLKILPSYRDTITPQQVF
Design: key: below the threshold = too weak to quantify, mostly under pKd 3.1 to 4

Binder | pKd
B1 | below the threshold
B2 | below the threshold

Each binder was assayed against NHERF2_2, Q15599 (assay: holdup assay). Conditions: plain residues with an end cap or a label only (N-terminal biotin on a linker: ado-ado).
Sequence of NHERF2_2, Q15599 (Q15599 142-238): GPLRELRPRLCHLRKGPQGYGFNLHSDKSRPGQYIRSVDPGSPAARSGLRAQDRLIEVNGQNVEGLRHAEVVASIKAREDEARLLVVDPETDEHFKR
Design: key: below the threshold = too weak to quantify, mostly under pKd 3.1 to 4

Binder | pKd
B1 | 3.58
B2 | 4.84

Each binder was assayed against T7, NHERF3_1, Q5T2W1 (assay: holdup assay). Conditions: plain residues with an end cap or a label only (N-terminal biotin on a linker: ado-ado).
T7 sequence (Q5T2W1 4-100, limits assumed, looked up): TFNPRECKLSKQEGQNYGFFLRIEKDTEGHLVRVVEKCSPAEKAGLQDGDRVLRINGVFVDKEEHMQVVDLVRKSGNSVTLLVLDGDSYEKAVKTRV
Design: key: below the threshold = too weak to quantify, mostly under pKd 3.1 to 4

Binder | pKd
B1 | below the threshold
B2 | 5.39

Each binder was assayed against T8, NHERF3_4, Q5T2W1 (assay: holdup assay). Conditions: plain residues with an end cap or a label only (N-terminal biotin on a linker: ado-ado).
T8 sequence (Q5T2W1 373-468, limits assumed, looked up): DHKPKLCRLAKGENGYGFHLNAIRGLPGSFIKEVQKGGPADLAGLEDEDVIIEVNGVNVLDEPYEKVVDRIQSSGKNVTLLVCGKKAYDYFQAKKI
Design: key: below the threshold = too weak to quantify, mostly under pKd 3.1 to 4

Binder | pKd
B1 | below the threshold
B2 | 3.48

The binders below were run against T9, PCLO, Q9Y6V0 (assay: holdup assay). Conditions: plain residues with an end cap or a label only (N-terminal biotin on a linker: ado-ado).
T9 sequence (Q9Y6V0 4491-4600, limits assumed, looked up): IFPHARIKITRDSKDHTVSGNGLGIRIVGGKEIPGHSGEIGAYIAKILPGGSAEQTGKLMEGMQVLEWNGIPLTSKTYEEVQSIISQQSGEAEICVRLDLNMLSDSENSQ
Design: key: below the threshold = too weak to quantify, mostly under pKd 3.1 to 4

Binder | pKd
B1 | below the threshold
B2 | below the threshold

These binders were tested against T10, PDZD2_2, O15018 (assay: holdup assay). Conditions: plain residues with an end cap or a label only (N-terminal biotin on a linker: ado-ado).
T10 sequence (O15018 329-429, limits assumed, looked up): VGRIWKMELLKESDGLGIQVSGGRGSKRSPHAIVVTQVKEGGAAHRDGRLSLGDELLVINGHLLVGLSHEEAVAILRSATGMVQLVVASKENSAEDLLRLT
Design: key: below the threshold = too weak to quantify, mostly under pKd 3.1 to 4

Binder | pKd
B1 | 3.97
B2 | 3.5

The binders below were run against T11, SIPA1L2, Q9P2F8 (assay: holdup assay). Conditions: plain residues with an end cap or a label only (N-terminal biotin on a linker: ado-ado).
T11 sequence (Q9P2F8 945-1036, limits assumed, looked up): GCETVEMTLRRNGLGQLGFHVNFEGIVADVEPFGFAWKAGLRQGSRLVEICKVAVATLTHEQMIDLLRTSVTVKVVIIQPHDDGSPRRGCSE
Design: key: below the threshold = too weak to quantify, mostly under pKd 3.1 to 4

Binder | pKd
B1 | below the threshold
B2 | below the threshold

The binders below were run against T12, SNTA1, Q13424 (assay: holdup assay). Conditions: plain residues with an end cap or a label only (N-terminal biotin on a linker: ado-ado).
T12 sequence (Q13424 82-180, limits assumed, looked up): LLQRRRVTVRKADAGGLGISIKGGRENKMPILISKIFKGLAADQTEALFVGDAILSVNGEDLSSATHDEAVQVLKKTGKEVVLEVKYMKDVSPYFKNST
Design: key: below the threshold = too weak to quantify, mostly under pKd 3.1 to 4

Binder | pKd
B1 | below the threshold
B2 | below the threshold

Reference: paper PMC9482650, “Quantitative fragmentomics allow affinity mapping of interactomes” (Nature Communications, 2022)
